± gives the half width of the 95% confidence interval.
What was measured:
[1] = folding stability dG unfold from chymotrypsin proteolysis; higher = more stable
Experimental: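 Folding stability of de novo designed mini-proteins (<80 aa, no Cys; designed by TrROS, TrMRF, ProteinMPNN and the joint model) was measured by cDNA display proteolysis with trypsin and chymotrypsin. Each protease was used at 11 concentrations in a threefold dilution series plus a no-protease condition. K50 was inferred by Bayesian fitting of sequencing counts, and dG unfold was derived against a sequence-predicted unfolded-state K50 (Tsuboyama et al. method). Sequences shown include variable-length N-terminal GS-type padding (SAGGSAGG...) inside a display construct carrying a PA tag. Rows were kept only if the AF2 dimer inter-PAE was >15, to exclude likely homo-oligomers.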

[2] = folding stability dG unfold (combined trypsin and chymotrypsin); higher = more stable
In short: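 Unfolding free energy was derived, per protease or combined, against a sequence-predicted unfolded-state K50 and a shared folded-state K50, starting from K50 inferred by Bayesian fitting of sequencing counts. Digestion with trypsin and chymotrypsin was carried out on designed mini-proteins under 80 residues without cysteine in a PA-tagged cDNA display construct. Only designs with AlphaFold2 dimer inter-PAE above 15 were kept.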

Sequence	folding stability dG unfold [1]	folding stability dG unfold [2]
SAGGSAGGSAGKKKIHVHQYPDGNYHIRVPNGKSYHFPPEDADELVEELGIDEVEIHPMDSAGGSAGGSAGG [r11_312_TrROS]	0.0552 ± 0.089 kcal/mol	-0.407 ± 0.16 kcal/mol
SAGGSAGGSAGKKKITIDYEEIREKFGLPPDDIDNMSMSRVMNYAKPLAKEGKIDEIEISSAGGSAGGSAGG [r11_80_TrROS]	-0.291 ± 0.53 kcal/mol	< -1 kcal/mol
SAGGSAGGSAGKLRFRRVGLVLELNEDGSLSLSPIEEEVEVEVPEPLPVGLGLGGKPYLLSAGGSAGGSAGG [r17_418_TrMRF]	0.325 ± 0.27 kcal/mol	-0.0408 ± 0.22 kcal/mol
SAGGSAGGSAGKNNKVKLTYTIEVEGEGKPKKIKIEYYLSPNGIPEPPELIKSKAGGLAKSAGGSAGGSAGG [r17_373_TrMRF]	0.306 ± 0.13 kcal/mol	-0.191 ± 0.21 kcal/mol
SAGGSAGGSAGMEPLKEIEVPFPGGWSIEIEVYPNGIKIEPNPNFDNPQMKKRILDALNPSAGGSAGGSAGG [r11_372_TrROS]	-0.0677 ± 0.26 kcal/mol	-0.445 ± 0.42 kcal/mol
SAGGSAGGSAGMESKVVTLDVPLAPDETAEAVAARLRAADPAAVLLGYDPAAGRVTVRVASAGGSAGGSAGG [r11_465_JUSTAS]	0.411 ± 0.078 kcal/mol	-0.332 ± 0.087 kcal/mol
SAGGSAGGSAGMIQIDQDPNNGNYKVKIRNPDGKPREFNVDSPDELEDAADKNGFPAEPISAGGSAGGSAGG [r11_1049_TrROS]	-0.0704 ± 0.14 kcal/mol	-0.512 ± 0.41 kcal/mol
SAGGSAGGSAGMIVVPPEDLENLPPWYSVEPGEDSVTVWDESNPVVVPRDEPALVSPPERSAGGSAGGSAGG [r17_91_JUSTAS]	0.72 ± 0.079 kcal/mol	-0.136 ± 0.22 kcal/mol
SAGGSAGGSAGMKTKATFVIDNEEYDATIDPGTPKNSTATVTKPDSTTTITVTNIKLFPESAGGSAGGSAGG [r11_247_JUSTAS]	0.897 ± 0.062 kcal/mol	0.346 ± 0.11 kcal/mol
SAGGSAGGSAGMNIVVSSEEEAEKAIKELAKKLGKPNNLKNPKVTVIPLEPTPTGGLKKKSAGGSAGGSAGG [r17_237_JUSTAS]	0.226 ± 0.077 kcal/mol	-0.301 ± 0.16 kcal/mol
SAGGSAGGSAGMRITVEPDRVVVHPPGGEEIVMPAPEWGEEEVLALAEEHPDVEVEPVPPSAGGSAGGSAGG [r17_545_JUSTAS]	-1.01 ± 0.37 kcal/mol	< -1 kcal/mol
SAGGSAGGSAGMVIELPVPGTMSPEEARARAEEVAEELARRTGRPVEVREVRLVTPEELASAGGSAGGSAGG [r17_68_JUSTAS]	-0.364 ± 0.086 kcal/mol	-0.733 ± 0.4 kcal/mol
SAGGSAGGSAGMVIKSPDGRIIEVEEEEEGEKLKIKRITYVGDKYTPSEEEIEVPPVDLKSAGGSAGGSAGG [r11_106_JUSTAS]	-0.201 ± 0.54 kcal/mol	< -1 kcal/mol
SAGGSAGGSAGMYDVGFIEAPKDTAYIKFPEINYIAEIKLDPKNGGFSLDEIKLYPLNTKSAGGSAGGSAGG [r11_352_TrMRF]	0.521 ± 0.067 kcal/mol	0.107 ± 0.11 kcal/mol
SAGGSAGGSAGNPKYVMVPLKFPDGNPVNIMVSDDEIHIYDMGPNKWRWIPADDLPPEAFSAGGSAGGSAGG [r11_155_TrROS]	0.666 ± 0.15 kcal/mol	0.215 ± 0.15 kcal/mol
SAGGSAGGSAGPPPMEPIFTFTNPKEPVTIYRSKDPGNYHIYDPPNGKERTIPPNDPNFFSAGGSAGGSAGG [r11_1007_TrROS]	-0.0661 ± 0.55 kcal/mol	< -1 kcal/mol
SAGGSAGGSAGPRVKFRFPGQEHTIPPGRRVYFGNGKKFDPGEPLDDIPPDNITPVEIEPSAGGSAGGSAGG [r17_511_TrROS]	-0.297 ± 0.18 kcal/mol	-0.609 ± 0.15 kcal/mol
SAGGSAGGSAGRKTLPMRNPNNGHEVTAEIEDENGKPIKIEAPMNSPEMRDMARDFAKKISAGGSAGGSAGG [r11_119_TrROS]	0.355 ± 0.13 kcal/mol	-0.154 ± 0.18 kcal/mol

— the supplement of paper PMC12764529
